# Biological target: human plasma kallikrein (human, UniProt P03952 20-390; P03952 391-638)
# Assay: cell-based or functional assay
# Sequence of human plasma kallikrein (P03952 20-390, chain 1 of 2): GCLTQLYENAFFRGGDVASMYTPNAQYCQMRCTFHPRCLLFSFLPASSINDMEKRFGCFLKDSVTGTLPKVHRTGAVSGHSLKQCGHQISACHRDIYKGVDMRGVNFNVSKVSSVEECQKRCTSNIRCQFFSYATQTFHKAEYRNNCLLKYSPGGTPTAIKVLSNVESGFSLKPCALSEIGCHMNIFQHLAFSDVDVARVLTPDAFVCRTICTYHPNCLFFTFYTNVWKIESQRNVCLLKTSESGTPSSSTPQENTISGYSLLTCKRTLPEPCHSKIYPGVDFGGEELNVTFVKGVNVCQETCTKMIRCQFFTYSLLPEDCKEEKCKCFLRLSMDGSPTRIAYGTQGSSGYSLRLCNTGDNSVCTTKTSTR
# Sequence of human plasma kallikrein (P03952 391-638, chain 2 of 2): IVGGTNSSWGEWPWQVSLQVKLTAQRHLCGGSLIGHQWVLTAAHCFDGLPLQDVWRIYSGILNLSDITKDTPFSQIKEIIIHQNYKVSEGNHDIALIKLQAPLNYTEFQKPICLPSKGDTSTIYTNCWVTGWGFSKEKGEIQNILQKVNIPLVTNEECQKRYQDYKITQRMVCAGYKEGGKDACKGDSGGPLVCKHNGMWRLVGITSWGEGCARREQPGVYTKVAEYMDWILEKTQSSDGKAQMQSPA
row,% inhibition at 10 nM,Binder
1,86.5%,"M205-C11 (Fab, V domains shown) VH: EVQLLESGGGLVQPGGSLRLSCAASGFTFSQYMMMWVRQAPGKGLEWVSRISPSGGSTLYADSVKGRFTISRDNSKNTLYLQMNSLRAEDTAVYYCARVARGIAARSRTSYFDYWGQGTLVTVSS VL: DIQMTQSPGTLSLSPGERATLSCRTSQFVNSNYLAWYQQTPGQAPRLLIYGASSRATGIPDRFSGTGYGTDFTLTISRLEPEDYGTYYCQQSSRTPWTFGQGTRVEIK"
2,69.1%,"M203-A03 (Fab, V domains shown) VH: EVQLLESGGGLVQPGGSLRLSCAASGFTFSVYMMIWVRQAPGKGLEWVSSISPSGGQTTYADSVKGRFTISRDNSKNTLYLQMNSLRAEDTAVYYCARVARGIAARSRTSYFDYWGQGTLVTVSS VL: DIQMTQSPGTLSLSPGERATLSCRTSQFVNSNYLAWYQQTPGQAPRLLIYGASSRATGIPDRFSGTGYGTDFTLTISRLEPEDYGTYYCQQSSRTPWTFGQGTRVEIK"
3,71.1%,"M205-B04 (Fab, V domains shown) VH: EVQLLESGGGLVQPGGSLRLSCAASGFTFSNYDMIWVRQAPGKGLEWVSSISSSGGTTKYADSVKGRFTISRDNSKNTLYLQMNSLRAEDTAVYYCARVARGIAARSRTSYFDYWGQGTLVTVSS VL: DIQMTQSPGTLSLSPGERATLSCRTSQFVNSNYLAWYQQTPGQAPRLLIYGASSRATGIPDRFSGTGYGTDFTLTISRLEPEDYGTYYCQQSSRTPWTFGQGTRVEIK"
4,85.9%,"M205-H08 (Fab, V domains shown) VH: EVQLLESGGGLVQPGGSLRLSCAASGFTFSDYMMMWVRQAPGKGLEWVSSIVPSGGHTQYADSVKGRFTISRDNSKNTLYLQMNSLRAEDTAVYYCARVARGIAARSRTSYFDYWGQGTLVTVSS VL: DIQMTQSPGTLSLSPGERATLSCRTSQFVNSNYLAWYQQTPGQAPRLLIYGASSRATGIPDRFSGTGYGTDFTLTISRLEPEDYGTYYCQQSSRTPWTFGQGTRVEIK"
5,80.3%,"M205-A02 (Fab, V domains shown) VH: EVQLLESGGGLVQPGGSLRLSCAASGFTFSTYLMAWVRQAPGKGLEWVSGIVSSGGRTLYADSVKGRFTISRDNSKNTLYLQMNSLRAEDTAVYYCARVARGIAARSRTSYFDYWGQGTLVTVSS VL: DIQMTQSPGTLSLSPGERATLSCRTSQFVNSNYLAWYQQTPGQAPRLLIYGASSRATGIPDRFSGTGYGTDFTLTISRLEPEDYGTYYCQQSSRTPWTFGQGTRVEIK"
6,82.6%,"M209-H03 (Fab, V domains shown) VH: EVQLLESGGGLVQPGGSLRLSCAASGFTFSHYLMTWVRQAPGKGLEWVSYISPSGGHTIYADSVKGRFTISRDNSKNTLYLQMNSLRAEDTAVYYCARVAQGIAARSRTTQFDYWGQGTLVTVSS VL: DIQMTQSPGTLSLSPGERATLSCRTSQFVNSNYLAWYQQTPGQAPRLLIYGASSRATGIPDRFSGTGYGTDFTLTISRLEPEDYGTYYCQQSSRTPWTFGQGTRVEIK"
7,77.6%,"M206-E02 (Fab, V domains shown) VH: EVQLLESGGGLVQPGGSLRLSCAASGFTFSEYMMMWVRQAPGKGLEWVSVISPSGGQTHYADSVKGRFTISRDNSKNTLYLQMNSLRAEDTAVYYCARVARGIAARSRTSYFDYWGQGTLVTVSS VL: DIQMTQSPGTLSLSPGERATLSCRTSQFVNSNYLAWYQQTPGQAPRLLIYGASSRATGIPDRFSGTGYGTDFTLTISRLEPEDYGTYYCQQSSRTPWTFGQGTRVEIK"
8,77.1%,"M205-H01 (Fab, V domains shown) VH: EVQLLESGGGLVQPGGSLRLSCAASGFTFSNYTMQWVRQAPGKGLQWVSYISPSGGYTGYADSVKGRFTISRDNSKNTLYLQMNSLRAEDTAVYYCARVARGIAARSRTSYFDYWGQGTLVTVSS VL: DIQMTQSPGTLSLSPGERATLSCRTSQFVNSNYLAWYQQTPGQAPRLLIYGASSRATGIPDRFSGTGYGTDFTLTISRLEPEDYGTYYCQQSSRTPWTFGQGTRVEIK"
9,78.5%,"M208-A10 (Fab, V domains shown) VH: EVQLLESGGGLVQPGGSLRLSCAASGFTFSHYLMTWVRQAPGKGLEWVSYISPSGGHTIYADSVKGRFTISRDNSKNTLYLQMNSLRAEDTAVYYCARVARGIAARSRTSQFDHWGQGTLVTVSS VL: DIQMTQSPGTLSLSPGERATLSCRTSQFVNSNYLAWYQQTPGQAPRLLIYGASSRATGIPDRFSGTGYGTDFTLTISRLEPEDYGTYYCQQSSRTPWTFGQGTRVEIK"
10,76.6%,"M207-A02 (Fab, V domains shown) VH: EVQLLESGGGLVQPGGSLRLSCAASGFTFSHYLMTWVRQAPGKGLEWVSYISPSGGHTIYADSVKGRFTISRDNSKNTLYLQMNSLRAEDTALYYCARVARGIAARSRTINLDYWGQGTLVTVSS VL: DIQMTQSPGTLSLSPGERATLSCRTSQFVNSNYLAWYQQTPGQAPRLLIYGASSRATGIPDRFSGTGYGTDFTLTISRLEPEDYGTYYCQQSSRTPWTFGQGTRVEIK"
11,78.2%,"M205-E11 (Fab, V domains shown) VH: EVQLLESGGGLVQPGGSLRLSCAASGFTFSNYTMGWVRQAPGKGLEWVSSISPSGGKTDYADSVKGRFTISRDNSKNTLYLQMNSLRAEDTAVYYCARVARGIAARSRTSYFDYWGQGTLVTVSS VL: DIQMTQSPGTLSLSPGERATLSCRTSQFVNSNYLAWYQQTPGQAPRLLIYGASSRATGIPDRFSGTGYGTDFTLTISRLEPEDYGTYYCQQSSRTPWTFGQGTRVEIK"
12,68.8%,"M209-E03 (Fab, V domains shown) VH: EVQLLESGGGLVQPGGSLRLSCAASGFTFSHYLMTWVRQAPGKGLEWVSYISPSGGHTIYADSVKGRFTISRDNSKNTLYLQMNSLRAEDTAVYYCARQARGIAARSRTSYFDYWGQGTLVTVSS VL: DIQMTQSPGTLSLSPGERATLSCRTSQFVNSNYLAWYQQTPGQAPRLLIYGASSRATGIPDRFSGTGYGTDFTLTISRLEPEDYGTYYCQQSSRTPWTFGQGTRVEIK"
13,74.7%,"M209-D02 (Fab, V domains shown) VH: EVQLLESGGGLVQPGGSLRLSCAASGFTFSHYLMTWVRQAPGKGLEWVSYISPSGGHTIYADSVKGRFTISRDNSKNTLYLQMNSLRAEDTAVYYCARVARGITARSRTSYFDDWGQGTLVTVSS VL: DIQMTQSPGTLSLSPGERATLSCRTSQFVNSNYLAWYQQTPGQAPRLLIYGASSRATGIPDRFSGTGYGTDFTLTISRLEPEDYGTYYCQQSSRTPWTFGQGTRVEIK"
14,85.3%,"M209-H09 (Fab, V domains shown) VH: EVQLLESGGGLVQPGGSLRLSCAASGFTFSHYLMTWVRQAPGKGLEWVSYISPSGGHTIYADSVKGRFTISRDNSKNTLYLQMNSLRAEDTAVYYCARVARGIAARSRTVYFDHWGQGTLVTVSS VL: DIQMTQSPGTLSLSPGERATLSCRTSQFVNSNYLAWYQQTPGQAPRLLIYGASSRATGIPDRFSGTGYGTDFTLTISRLEPEDYGTYYCQQSSRTPWTFGQGTRVEIK"
15,85.4%,"M209-D12 (Fab, V domains shown) VH: EVQLLESGGGLVQPGGSLRLSCAASGFTFSHYLMTWVRQAPGKGLEWVSYISPSGGHTIYADSVKGRFTISRDNSKNTLYLQMNSLRAEDTAVYYCATVARGIAARSRTSYFDQWGQGTLVTVSS VL: DIQMTQSPGTLSLSPGERATLSCRTSQFVNSNYLAWYQQTPGQAPRLLIYGASSRATGIPDRFSGTGYGTDFTLTISRLEPEDYGTYYCQQSSRTPWTFGQGTRVEIK"
16,74.8%,"M210-A06 (Fab, V domains shown) VH: EVQLLESGGGLVQPGGSLRLSCAASGFTFSHYLMTWVRQAPGKGLEWVSYISPSGGHTIYADSVKGRFTISRDNSKNTLYLQMNSLRAEDTAVYYCARVARGIAARSRTSQFDYWGQGTLVTVSS VL: DIQMTQSPGTLSLSPGERATLSCRTSQFVNSNYLAWYQQTPGQAPRLLIYGASSRATGIPDRFSGTGYGTDFTLTISRLEPEDYGTYYCQQSSRTPWTFGQGTRVEIK"
17,74.8%,"M209-G01 (Fab, V domains shown) VH: EVQLLESGGGLVQPGGSLRLSCAASGFTFSHYLMTWVRQAPGKGLEWVSYISPSGGHTIYADSVKGRFTISRDNSKNTLYLQMNSLRAEDTAVYYCARVAQGISGRSRLSYVDYWGQGTLVTVSS VL: DIQMTQSPGTLSLSPGERATLSCRTSQFVNSNYLAWYQQTPGQAPRLLIYGASSRATGIPDRFSGTGYGTDFTLTISRLEPEDYGTYYCQQSSRTPWTFGQGTRVEIK"
18,76.1%,"M209-H07 (Fab, V domains shown) VH: EVQLLESGGGLVQPGGSLRLSCAASGFTFSHYLMTWVRQAPGKGLEWVSYISPSGGHTIYADSVKGRFTISRDNSKNTLYLQMNSLRAEDTAVYYCARVARGIAARQRTSYYDYWGQGTLVTVSS VL: DIQMTQSPGTLSLSPGERATLSCRTSQFVNSNYLAWYQQTPGQAPRLLIYGASSRATGIPDRFSGTGYGTDFTLTISRLEPEDYGTYYCQQSSRTPWTFGQGTRVEIK"
19,84.1%,"M204-E12 (Fab, V domains shown) VH: EVQLLESGGGLVQPGGSLRLSCAASGFTFSTYMMQWVRQAPGKGLEWVSYIGPSGGKTDYADSVKGRFTISRDNSKNTLYLQMNSLRAEDTAVYYCARVARGIAARSRTSYFDYWGQGTLVTVSS VL: DIQMTQSPGTLSLSPGERATLSCRTSQFVNSNYLAWYQQTPGQAPRLLIYGASSRATGIPDRFSGTGYGTDFTLTISRLEPEDYGTYYCQQSSRTPWTFGQGTRVEIK"
20,82.5%,"M206-H05 (Fab, V domains shown) VH: EVQLLESGGGLVQPGGSLRLSCAASGFTFSGYKMQWVRQAPGKGLEWVSSISPSGGITMYADSVKGRFTISRDNSKNTLYLQMNSLRAEDTAVYYCARVARGIAARSRTSYFDYWGQGTLVTVSS VL: DIQMTQSPGTLSLSPGERATLSCRTSQFVNSNYLAWYQQTPGQAPRLLIYGASSRATGIPDRFSGTGYGTDFTLTISRLEPEDYGTYYCQQSSRTPWTFGQGTRVEIK"
21,85.5%,"M210-H01 (Fab, V domains shown) VH: EVQLLESGGGLVQPGGSLRLSCAASGFTFSHYLMTWVRQAPGKGLEWVSYISPSGGHTIYADSVKGRFTISRDNSKNTLYLQMNSLRAEDTAVYYCARVARGIAARSRNSQQDYWGQGTLVTVSS VL: DIQMTQSPGTLSLSPGERATLSCRTSQFVNSNYLAWYQQTPGQAPRLLIYGASSRATGIPDRFSGTGYGTDFTLTISRLEPEDYGTYYCQQSSRTPWTFGQGTRVEIK"

# Source: patent publication US9266964
